From publication PMC6131548

Target: Tsr2 (in the ITC with yeast ESS2) (S. cerevisiae (yeast)) (UniProt Q06672)
Assay: ITC; VP-ITC; 20–40 µM Tsr2 variant in the cell, 400–800 µM ESS2 peptide in the syringe; 25 °C, 20 mM NaPi pH 7.1, 1 mM DTT, 10 µM EDTA

Kd: 700 nM
stoichiometry N: 1
Binder: RPRFNRENKVSPADAAKKAL [ESS2 peptide]
